Data taken from publication PMC6688928.

Assays:
[1] = target: FLAG-NaVAb V100C/Q150C (Hi5 cells, crosslinking assay) (UniProt A8EVM5); assay: cross-linking
[2] = target: MBP-NaVAb/KAV/G94C/Q150C, disulfide-crosslinked (UniProt A8EVM5); assay: cross-linking
[3] = target: MBP-NaVAb/KAV/G94C/Q150C, disulfide-crosslinked (UniProt A8EVM5); assay: cryo-EM structure
[4] = target: NaVAb/V100C/Q150C Δ28, disulfide-crosslinked; assay: cross-linking
[5] = target: FLAG-NaVAb KAV/E96C/Q150C (Hi5 cells, crosslinking assay) (UniProt A8EVM5); assay: cross-linking
[6] = target: FLAG-NaVAb E96C/Q150C (Hi5 cells, crosslinking assay) (UniProt A8EVM5); assay: cross-linking
[7] = target: FLAG-NaVAb G94C/Q150C (Hi5 cells, crosslinking assay) (UniProt A8EVM5); assay: cross-linking
[8] = target: FLAG-NaVAb KAV/G94C/Q150C (Hi5 cells, crosslinking assay) (UniProt A8EVM5); assay: cross-linking

“FLAG-NaVAb V100C/Q150C (Hi5 cells, crosslinking assay) (from UniProt A8EVM5 1-267) (natural protein)” gave a percent formation of disulfide-crosslinked tetramers [1] of 80% and a stoichiometry N [1] of 4.
With “MBP-NaVAb/KAV/G94C/Q150C, disulfide-crosslinked (from UniProt A8EVM5 5-267) (natural protein)” the stoichiometry N [2] was 4 and the stoichiometry N [3] was 4.
“NaVAb/V100C/Q150C Δ28, disulfide-crosslinked (domain or fragment)” gave a stoichiometry N [4] of 4.
“FLAG-NaVAb KAV/E96C/Q150C (Hi5 cells, crosslinking assay) (from UniProt A8EVM5 1-267) (natural protein)” gave a percent crosslinked in tetramers [5] of 80% and a stoichiometry N [5] of 4.
Work on “FLAG-NaVAb E96C/Q150C (Hi5 cells, crosslinking assay) (from UniProt A8EVM5 1-267) (natural protein)” yielded a percent formation of disulfide-crosslinked tetramers [6] of 40% and a stoichiometry N [6] of 4.
Substance “FLAG-NaVAb G94C/Q150C (Hi5 cells, crosslinking assay) (from UniProt A8EVM5 1-267) (natural protein)” has a percent formation of disulfide-crosslinked tetramers [7] of 20% and a stoichiometry N [7] of 4.
“FLAG-NaVAb KAV/G94C/Q150C (Hi5 cells, crosslinking assay) (from UniProt A8EVM5 1-267) (natural protein)” showed a percent crosslinked in tetramers [8] of 80% and a stoichiometry N [8] of 4.
